Laboratory results as given in US20150218594A1, “CELL-FREE AND MINIMIZED METABOLIC REACTION CASCADES FOR THE PRODUCTION OF CHEMICALS” (CLARIANT PRODUKTE (DEUTSCHLAND) GMBH, priority 2012, published 2015).
Numbering of substitutions follows the chain as printed. Names and notes keep the numbering of the source.

B1: S405C: optimized Thermoplasma acidophilum aldehyde dehydrogenase with the mutation of S405C (protein)
chain: MDTKLYIDGQWVNSSSGKTVDKYSPVTGQVIGRFEAATRDDVDRAIDAAEDAFWAWNDLGSVERSKIIYRAKELIEKNRAELENIIMEENGKPVKEAKEEVDGVIDQIQYYAEWARKLNGEVVEGTSSHRKIFQYKVPYGIVVALTPWNFPAGMVARKLAPALLTGNTVVLKPSSDTPGSAEWIVRKFVEAGVPKGVLNFITGRGSEIGDYIVEHKKVNLITMTGSTATGQRIMQKASANMAKLILELGGKAPFMVWKDADMDNALKTLLWAKYWNAGQSCIAAERLYVHEDIYDTFMSRFVELSRKLALGDPKNADMGPLINKGALQATSEIVEEAKESGAKILFGGSQPSLSGPYRNGYFFLPTIIGNADQKSKIFQEEIFAPVIGARKISSVEEMYDLANDCKYGLASYLFTKDPNIIFEASERIRFGELYVNMPGPEASQGYHTGFRMTGQAGEGSKYGISEYLKLKNIYVDYSGKPLHINTVRDDLFQSGRPVLGSSHHHHHH
modifications: TaALDH-S405C-Chis
B2: F34L S405C: optimized Thermoplasma acidophilum aldehyde dehydrogenase with the mutations F34L and S405C (protein)
chain: B1 chain with F34L
modifications: TaALDH-F34L-S405C-Chis
B3: F34M S405N: optimized Thermoplasma acidophilum aldehyde dehydrogenase with the mutations F34M and S405N (protein)
chain: B1 chain with F34M, C405N
modifications: TaALDH-F34M-S405N-Chis
B4: F34M W271S S405N: TaALDH variant with the mutations F34M, W271S and S405N; no SEQ ID printed (protein)
chain: B1 chain with F34M, W271S, C405N
B5: W271S: optimized Thermoplasma acidophilum aldehyde dehydrogenase with the mutation of W271S (protein)
chain: B1 chain with W271S, C405S
modifications: TaALDH-W271S-Chis
B6: Y399R: optimized Thermoplasma acidophilum aldehyde dehydrogenase with the mutation of Y399R (protein)
chain: B1 chain with Y399R, C405S
modifications: TaALDH-Y399R-Chis
B7: F34M W271S Y399C S405N: optimized Thermoplasma acidophilum aldehyde dehydrogenase with the mutations F34M, W271S, Y399C and S405N (protein)
chain: B1 chain with F34M, W271S, Y399C, C405N
modifications: TaALDH-F34M-W271S-Y399C-S405N-Chis
B8: wildtype (wt): Aldehyde Dehydrogenase ALDH (EC 1.2.1.3), Thermoplasma acidophilum, Seq ID 08, wildtype, non-optimized enzyme (protein)
chain: B1 chain with C405S
modifications: Aldehyde Dehydrogenase (EC 1.2.1.3), Thermoplasma acidophilum, wildtype enzyme Protein sequence including C-terminal His-Tag
B9: F34L: optimized Thermoplasma acidophilum aldehyde dehydrogenase with the mutation of F34L (protein)
chain: B1 chain with F34L, C405S
modifications: taALDH-F34L-Chis

Tests used:
Type in all cases: biochemical
[1] = Screening of TaALDH variants, relative activity under standard conditions (2 mM NAD); conditions: for 2 mM NAD (mU/mL): 1 mM D-glyceraldehyde, 50° C., pH 7, lysate supernatant; for relative to wt: mU/mL values normalized to the wildtype control value
Experimental: (§1) Colonies of E. coli BL21 (DE3) containing Ta-ALDH library were transferred into 96-deepwell plates (Gainer BioOne) containing Zym5052 autoinduction medium (Protein Expression and Purification, 2005. 41(1): p. 207-234). Cultures were grown over night at 37° C., 1000 rpm. Cells were harvested by centrifugation at 5000 g at 2° C. for 2 min and lysed with B-Per® protein extraction reagent (Thermo Fisher Scentific, Rockford, USA). After incubation for 60 min at 50° C., insoluble cell debris and was removed by centrifugation at 5000 g at 20° C. for 30 min. Supernatants containing variants of TaALDH were tested for relative activity under standard conditions: 2 mM NAD, 1 mM D-glyceraldehyde in 50 mM HEPES (pH 7) at 50° C. After 20 min NADH formation was detected spectrophotometrically at 340 nm.
(§2) The values “relative to wt” are the mU/mL values normalized to the wildtype control value.

[2] = Activity in solvents of Ta-ALDH variants (3 % isobutanol); conditions: for 3 % isobutanol, 2 mM NAD (mU/mL): 50° C., pH 7; for 3 % isobutanol, 2 mM NAD (mU/mL) / relative to wt: 3 % isobutanol, 2 mM NAD; for relative to wt: normalized to the wildtype control value; for Stab. rel to wt: stability in 3 % isobutanol relative to wildtype
Experimental: as §1
Activity in solvents of Ta-ALDH variants was tested under standard assay conditions containing additional solvent. After 20 min NADH formation was detected and compared to relative activity.
as §2

[3] = Cofactor acceptance of Ta-ALDH variants (10 mM NAD); conditions: for 10 mM NAD (mU/mL): 1 mM D-glyceraldehyde, 50° C., pH 7; for 10 mM NAD (mU/mL) / relative to wt: 10 mM NAD; for relative to wt: normalized to the wildtype control value; for 10 mM NAD /2 mM NAD: ratio of activity at 10 mM NAD to 2 mM NAD
Experimental: as §1
Change in cofactor acceptance of Ta-ALDH variants was tested under standard assay conditions but with 10 mM NAD. After 20 min NADH formation was detected and compared to relative activity.
as §2

[4] = Determination of specific activity of purified TaALDH variants; conditions: purified enzyme, 1 mM D-Glyceraldehyde, 50° C., pH 7
Text: The Ta-aldh gene was cloned in pCBR-Chis expression vector as described above. Mutations F34L, F34M, Y399C, S405C and S405N were inserted into Ta-aldh gene by Quickchange PCR as described above. For recombinant expression, E. coli BL21 (DE3) was transformed with pCBR-Ta-aldh-Chis, pCBR-Ta-aldh-f34I-s405c-Chis, pCBR-Ta-aldh-f34m-s405n-Chis or pCBR-Ta-aldh-f34m-y399c-s405n-Chis. Each of the four variants was produced using the following protocol:
Large amounts of a TaALDH-Variant were produced with fed-batch fermentation in a 40 L Biostat Cplus bioreactor (Sartorius Stedim, Goettingen, Germany). Defined media was supplemented with 30 μg/ml kanamycin. After inoculation cells were grown at 30° C. for 24 h and induced with 0.3 mM IPTG. Enzyme expression was performed at 30° C. for 3 h. One fermentation produced 300 g cells (wet weight). Cells were harvested and lysed with Basic-Z Cell Disruptor (Constant Systems, Northants, UK) in loading buffer (200 mM NaCl; 20 mM Imidazol; 2.5 mM MgCl2; 50 mM NaPi, pH 6.2). After heat treatment at 50° C. for 30 min, cell debris and protein aggregates were separated from soluble fraction by centrifugation at 30,000 g at 20° C. for 30 min (Sorvall RC6+, SS-34 rotor, Thermo Scientific).
Soluble fraction of His-tagged TaALDH-Variant was further purified by Ni-NTA chromatography using ÄKTA UPC-900 FPLC-system (GE Healthcare, Freiburg, Germany). Supernatant was loaded on HiTrap FF-column and washed with two column volumes of loading buffer. Highly purified and concentrated TaALDH was fractioned after elution in imidazole buffer (200 mM NaCl; 500 mM imidazol; 50 mM NaPi, pH 6.2). Buffer was changed to 20 mM (NH4)HCO3 with HiPrep 26/10 Desalting column and TaALDH was lyophilized with an Alpha 2-4 LD Plus freeze dryer (Martin Christ GmbH, Osterode am Harz, Germany).
TaALDH activity was determined spectrophotometrically at 50° C. by measuring the rate of cofactor reduction at 340 nm in flat bottom microtiter plates (Grainer BioOne) with a Fluorostar Omega Photometer (BMG Labtech GmbH, Ortenberg, Germany). One unit of activity was defined as reduction of 1 μmol of cofactor per minute.

Molecule | 2 mM NAD (mU/mL) [1] [mU/mL] | relative to wt [1] | 3 % isobutanol, 2 mM NAD (mU/mL) [2] [mU/mL] | relative to wt [2] | Stab. rel to wt [2] | 10 mM NAD (mU/mL) [3] [mU/mL] | relative to wt [3] | 10 mM NAD /2 mM NAD [3] | specific activity (U/mg) at 2 mM NAD [4] [U/mg]
B1 | 19.29 | 6.7 | 12.65 | 7.9 | 1.2 | 66.82 | 5.6 | 0.8 | 
B2 | 15.23 | 5.3 | 8.17 | 5.1 | 1.0 | 46.83 | 3.9 | 0.7 | 1
B3 | 25.87 | 9.0 | 15.62 | 9.8 | 1.1 | 74.31 | 6.2 | 0.7 | 1.2
B4 | 125.38 | 43.4 | 43.86 | 27.5 | 0.6 | 279.58 | 23.5 | 0.5 | 
B5 | 58.35 | 20.2 | 20.8 | 13 | 0.6 | 181.89 | 15.3 | 0.8 | 
B6 | 3.76 | 1.3 | 2.16 | 1.4 | 1 | 11.56 | 1.0 | 0.7 | 
B7 | 3 | 1.0 | 1.3 | 0.8 | 0.8 | 8.08 | 0.7 | 0.7 | 
B8 | 2.89 | 1.0 | 1.60 | 1.0 | 1.0 | 11.92 | 1.0 | 1 | 0.2
B9 | 9.09 | 3.1 | 4.08 | 2.6 | 0.8 | 31.72 | 2.7 | 0.8 | 
